# Test results from US20230235054A1 (BIOATLA, published 2023).
# Changes are numbered by the printed parent chain.
# T1: recombinant human Nectin4 antigen (human, UniProt Q96NY8 32-349)
# T1 construct: construct not described
# T1 sequence (looked up): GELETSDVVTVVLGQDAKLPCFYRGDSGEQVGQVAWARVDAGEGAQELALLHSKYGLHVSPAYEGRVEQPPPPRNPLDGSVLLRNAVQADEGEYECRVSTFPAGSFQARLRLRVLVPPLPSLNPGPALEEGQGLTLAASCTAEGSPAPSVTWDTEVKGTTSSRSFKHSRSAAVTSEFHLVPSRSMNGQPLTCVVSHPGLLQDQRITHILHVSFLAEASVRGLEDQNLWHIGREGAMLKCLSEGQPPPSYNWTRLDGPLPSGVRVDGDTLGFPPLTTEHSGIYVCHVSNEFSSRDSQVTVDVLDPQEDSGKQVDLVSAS
# T2: cynoNectin4-mFc (cyno, UniProt A0A2K5WES1 32-349)
# T2 construct: Immobilized on the SPR chip; also called cyanoNectin4; not shown: mFc (mouse Fc)
# T2 sequence: T1 sequence (looked up) with V39A, I230V
# B1: BAP-143-wildtype (antibody, V domains shown)
# VH: EVQLVESGGGLVQPGGSLRLSCAASGFTFSSYNMNWVRQAPGKGLEWVSYISSSSSTIYYADSVKGRFTISRDNAKNSLSLQMNSLRDEDTAVYYCARAYYYGMDVWGQGTTVTVSS
# VL: DIQMTQSPSSVSASVGDRVTITCRASQGISGWLAWYQQKPGKAPKFLIYAASTLQSGVPSRFSGSGSGTDFTLTISSLQPEDFATYYCQQANSFPPTFGGGTKVEIK
# notes: 150 kDa used in SPR; also called BAP143-00-00; benchmark (BM)
# B2: BAP-143-00-02 (antibody, V domains shown)
# VH: B1 VH
# VL: B1 VL with F94E
# notes: Used as a conjugate with a linker payload (CAB ADC)
# B3: BAP-143-00-04 (antibody, V domains shown)
# VH: B1 VH with M34D
# VL: B1 VL
# notes: as for B2
# B4: BAP-143-00-06 (antibody, V domains shown)
# VH: B1 VH with M104D
# VL: B1 VL
# notes: as for B2
# B5: BAP-143-00-03 (antibody, V domains shown)
# VH: B1 VH
# VL: B1 VL with P96D
# notes: as for B2
# B6: BAP-143-00-01 (antibody, V domains shown)
# VH: B1 VH
# VL: B1 VL with L33E
# notes: as for B2
# B7: BAP-143-00-05 (antibody, V domains shown)
# VH: B1 VH with R98E
# VL: B1 VL
# notes: as for B2
# Biological target: T1, recombinant human Nectin4 antigen
# Assay: ELISA, coated antigen, PSB pH 6.0
# Protocol: 1) Coat ELISA plates with 100 μL of 1 μg/mL recombinant human Nectin4 antigen or cynoNectin4 antigen in carbonate-bicarbonate coating buffer. […] 2) Cover plates with sealing film and incubate overnight at 4° C. [0444] 3) Decant plates and tap out residual liquid on a stack of paper towels. [0445] 4) Wash wells twice by dispensing 200 μL of pH 6.0 or pH 7.4 ELISA incubation buffer to the wells and completely aspirate the contents. [0446] 5) Add 200 μL of pH 6.0 or pH 7.4 ELISA incubation buffer to the wells. Cover with sealing film and place the plate onto a plate shaker set to 50 rpm for 60 minutes at room temperature. [0447] 6) Decant plates and tap out residual liquid on a stack of paper towels. […] 7) Serially dilute test articles in 3-fold dilutions starting at 3000 ng/mL in pH 6.0 or pH 7.4 ELISA incubation buffer. […] 8) Add 100 μL/well of diluted test articles to the plates [0450] 9) Cover with sealing film and place the plates onto a plate shaker set to 50 rpm for 60 minutes at room temperature. [0451] 10) Decant plates and tap out residual liquid on a stack of paper towels. [0452] 11) Wash wells three times by dispensing 200 μL of pH 6.0 or pH 7.4 ELISA wash buffer to the wells and completely aspirate the contents. […] 12) Dilute the HRP secondary antibody at 1:2500 in pH 6.0 or pH 7.4 ELISA incubation buffer. [0454] […] 14) Cover with sealing film and place the plates onto a plate shaker set to 50 rpm for 60 minutes at room temperature. […] 15) Decant plates and tap out residual liquid on a stack of paper towels. […] 16) Wash wells three times by dispensing 200 μL of pH 6.0 or pH 7.4 ELISA wash buffer to the wells and completely aspirate the contents. [0458] 17) Dispense 50 μL per well of the TMB substrate solution into all wells of the plates.
row,EC50 [µg/mL],Binder
1,0.0316,B1
2,0.0876,B2
3,0.0258,B3
4,0.0247,B4
5,0.0344,B5
6,0.0313,B6
7,0.0441,B7

# Biological target: T2, cynoNectin4-mFc
# Assay: SPR, cynoNectin4-mFc immobilized, pH 6.0
# Protocol: (§1) Binding kinetics of anti-Nectin4 antibodies were measured by surface plasmon resonance using a SPR2/4 instrument (Sierra Sensors, Hamburg, Germany) and flat amine sensor chips. The SPR sensor contained four flow cells (FC1-FC4), each of which was addressed individually or in groups. huNectin4-His was immobilized in FC2, and cynoNectin4-mFc in FC4. No protein was immobilized in FC1 and FC3 which were used as control surfaces for FC2 and FC4, respectively.
# (§2) All injections were done at a flow rate of 25 μL/min at 25° C. The sensor surface was activated with 1-ethyl-3-(3-dimethylaminopropyl)-carbodiimide (EDC) and N-hydroxysuccinimide (NHS) (200 mM/50 mM) for 480 seconds. HuNectin4-His (2 μg/mL in 10 mM NaAc, pH4.5) was injected for 480s and the surface was inactivated by injecting 1M ethanolamine-HCl for 480s. CynoNectin4 was immobilized using the same conditions as described for huNectin4-His, except that the cynoNectin4 was diluted into 10 mM NaAc buffer having pH 5.0. The control surface was activated and deactivated using the same conditions, but without injecting protein. PBST buffer (PBS pH 7.4 with 0.05% TWEEN20™) was used as running buffer for the surface preparation. The running solution was switched to PBST with 30 mM sodium bicarbonate with the pH adjusted as indicated in the figures before the analyte injections. The instrument was equilibrated with the running solution for one hour before the first analyte injection.
# (§3) The off-rate was measured for 360s. The chip surface was regenerated after each cycle of interaction analysis by injecting 6 μL of 10 mM glycine (pH 2.0). Flow cells 1 and 3 without immobilized protein were used as control surfaces for reference subtraction.
Kd [nM],koff [s⁻¹],kon [M⁻¹ s⁻¹],Binder
1.06,,,B1
5.46,0.00242,443000,B2
2.08,0.00377,1.82e+06,B3
0.56,0.00141,2.52e+06,B4
2.33,0.00235,1.01e+06,B5
3.04,0.00248,817000,B6
7.02,0.00449,639000,B7

# Biological target: T2, cynoNectin4-mFc
# Assay: SPR, cynoNectin4-mFc immobilized, pH 7.4
# Protocol: as §1, §2, §3
Kd [nM],koff [s⁻¹],kon [M⁻¹ s⁻¹],Binder
0.333,,,B1
5.86,0.00195,334000,B2
1.33,0.00112,840000,B3
0.4,0.000335,839000,B4
3.85,0.000826,215000,B5
11.1,0.00162,146000,B6
4.89,0.00157,322000,B7
